Tests used:
[1] = target: ADAMTS13 (wild-type recombinant ADAMTS13 with a carboxy-terminal V5 tag) (UniProt Q76LX8)
[2] = target: ADAMTS13 (wild-type recombinant ADAMTS13 with a carboxy-terminal V5 tag) (UniProt Q76LX8); remark: listed apart in the source
ADAMTS13 P475S mutant = ADAMTS13 P475S mutant (UniProt Q76LX8)

Question: Which results are given for “von Willebrand Factor (VWF) (from UniProt P04275 764-2813) (natural protein)”?
Answer: reactivity of the mAb Wh2-11-1 to intracellular ADAMTS13 (flow cytometry, permeabilized HEK293 cells) after incubation with VWF at 37°C, fold increase [1]: > 10 fold; fluorescence intensity of the mAb Wh-2-11-1 on wild-type ADAMTS13 (flow cytometry) on addition of VWF, fold increase (data not given) [2]: 3.5 fold; fluorescence intensity of the mAb Wh-2-11-1 on the P475S mutant ADAMTS13 (flow cytometry) on addition of VWF, fold increase (data not given) (ADAMTS13 P475S mutant): 1.9 fold

— article PMC2716513
